The results in this text go back to article doi:10.1101/2020.02.28.970301, “Picomolar affinity antagonist and sustained signaling agonist peptide ligands for the adrenomedullin and calcitonin gene-related peptide receptors” (bioRxiv, 2020).

The target in the test is T1, CLR ECD (29-144) as it stands in MBP-RAMP2.55-140[L106R]-(GSA)3-CLR.29-144-H6 (human, UniProt Q16602 29-144).
T1 construct: calcitonin receptor-like receptor (CLR), human, extracellular domain, residues 29-144; joined to m5 on one chain by the (GSA)3 linker in the crystallised fusion m4; source: E. coli, purified (as part of the fusion m4); not shown: His6, C-terminal, kept
T1 sequence (Q16602 29-144, stated change not applied): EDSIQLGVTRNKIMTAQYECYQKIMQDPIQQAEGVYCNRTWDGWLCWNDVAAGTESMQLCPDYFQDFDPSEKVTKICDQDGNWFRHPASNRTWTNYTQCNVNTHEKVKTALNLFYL
Put plainly: crystal structure; bacterially expressed MBP-RAMP2 ECD-(GSA)3-CLR ECD mixed with peptide 1:1.2; hanging drop, 20% PEG MME 5000, 0.1 M sodium HEPES pH 8.2, 150 mM sodium formate, 3% DMSO; 1.83 Å. The following applies: both partners purified.

B1: RAMP2 ECD (55-140, L106R) as it stands in MBP-RAMP2.55-140[L106R]-(GSA)3-CLR.29-144-H6 (domain or fragment, human, UniProt O60895 55-140, looked up)
chain: GGTVKNYETAVQFCWNHYKDQMDPIEKDWCDWAMISRPYSTLRDCLEHFAERFDLGFPNPLAERIIFETHQIHFANCSLVQPTFSD
notes: receptor activity-modifying protein 2 (RAMP2), human, extracellular domain, residues 55-140; joined to m6 on one chain by the (GSA)3 linker in the crystallised fusion m4; source: E. coli, purified (as part of the fusion m4); not shown: MBP, N-terminal, kept
For B1, the binding result is listed as “binds”.
